Numbering of substitutions follows the chain as printed.
B1: RANTES derivative: signature sequence SEQ ID NO: 58 fused to positions 10-68 of native RANTES (SEQ ID NO: 1) (ligand)
chain: QGPPLMTLQVCCFAYIARPLPRAHIKEYFYTSGKCSNPAVVFVTRKNRQVCANPEKKWVREYINSLEMS
B2: RANTES derivative: signature sequence SEQ ID NO: 66 fused to positions 10-68 of native RANTES (SEQ ID NO: 1) (ligand)
chain: B1 chain with T7S, L8V, V10S
B3: RANTES derivative: signature sequence SEQ ID NO: 60 fused to positions 10-68 of native RANTES (SEQ ID NO: 1) (ligand)
chain: B1 chain with M6Q, T7W, L8M, V10A
B4: RANTES derivative: signature sequence SEQ ID NO: 68 fused to positions 10-68 of native RANTES (SEQ ID NO: 1) (ligand)
chain: B1 chain with T7S, L8G, V10S
B5: RANTES derivative: signature sequence SEQ ID NO: 26 fused to positions 10-68 of native RANTES (SEQ ID NO: 1) (ligand)
chain: B1 chain with P4L, L5S, M6G, T7W
B6: RANTES derivative: signature sequence SEQ ID NO: 11 fused to positions 10-68 of native RANTES (SEQ ID NO: 1) (ligand)
chain: B1 chain with T7A
B7: RANTES derivative: signature sequence SEQ ID NO: 64 fused to positions 10-68 of native RANTES (SEQ ID NO: 1) (ligand)
chain: B1 chain with T7S, V10S
B8: RANTES derivative: signature sequence SEQ ID NO: 17 fused to positions 10-68 of native RANTES (SEQ ID NO: 1) (ligand)
chain: B1 chain with L5G, M6D, T7I, L8V, Q9L, V10A
B9: RANTES derivative: signature sequence SEQ ID NO: 65 fused to positions 10-68 of native RANTES (SEQ ID NO: 1) (ligand)
chain: B1 chain with T7S, V10A
B10: RANTES derivative: signature sequence SEQ ID NO: 62 fused to positions 10-68 of native RANTES (SEQ ID NO: 1) (ligand)
chain: B1 chain with T7S, L8T
B11: RANTES derivative: signature sequence SEQ ID NO: 63 fused to positions 10-68 of native RANTES (SEQ ID NO: 1) (ligand)
chain: B1 chain with T7S, Q9S
B12: RANTES derivative: signature sequence SEQ ID NO: 13 fused to positions 10-68 of native RANTES (SEQ ID NO: 1) (ligand)
chain: B1 chain with T7W, L8R, Q9G, V10S
B13: RANTES derivative: signature sequence SEQ ID NO: 10 fused to positions 10-68 of native RANTES (SEQ ID NO: 1) (ligand)
chain: B1 chain with T7W, V10S
B14: RANTES derivative: signature sequence SEQ ID NO: 23 fused to positions 10-68 of native RANTES (SEQ ID NO: 1) (ligand)
chain: B1 chain with T7S, L8T, V10S
B15: RANTES derivative: signature sequence SEQ ID NO: 24 fused to positions 10-68 of native RANTES (SEQ ID NO: 1) (ligand)
chain: B1 chain with T7S
B16: RANTES derivative: signature sequence SEQ ID NO: 29 fused to positions 10-68 of native RANTES (SEQ ID NO: 1) (ligand)
chain: B1 chain with M6G, T7S, L8M, Q9G, V10P
B17: RANTES derivative: signature sequence SEQ ID NO: 15 fused to positions 10-68 of native RANTES (SEQ ID NO: 1) (ligand)
chain: B1 chain with T7Q, L8T, Q9T, V10P
B18: RANTES derivative: signature sequence SEQ ID NO: 28 fused to positions 10-68 of native RANTES (SEQ ID NO: 1) (ligand)
chain: B1 chain with L5G, M6S, T7W, L8S, Q9S
B19: RANTES derivative: signature sequence SEQ ID NO: 12 fused to positions 10-68 of native RANTES (SEQ ID NO: 1) (ligand)
chain: B1 chain with T7W, Q9G, V10G
B20: RANTES derivative: signature sequence SEQ ID NO: 69 fused to positions 10-68 of native RANTES (SEQ ID NO: 1) (ligand)
chain: B1 chain with T7S, L8G
B21: RANTES derivative: signature sequence SEQ ID NO: 3 fused to positions 10-68 of native RANTES (SEQ ID NO: 1) (ligand)
chain: B1 chain with T7W, L8M
B22: RANTES derivative: signature sequence SEQ ID NO: 21 fused to positions 10-68 of native RANTES (SEQ ID NO: 1) (ligand)
chain: B1 chain with L5G, M6D, T7W
B23: RANTES derivative: signature sequence SEQ ID NO: 16 fused to positions 10-68 of native RANTES (SEQ ID NO: 1) (ligand)
chain: B1 chain with L5G, M6D, L8V, Q9L, V10W
B24: RANTES derivative: signature sequence SEQ ID NO: 20 fused to positions 10-68 of native RANTES (SEQ ID NO: 1) (ligand)
chain: B1 chain with P4L, L5S, M6G, T7Q, L8S, Q9T, V10P
B25: RANTES derivative: signature sequence SEQ ID NO: 18 fused to positions 10-68 of native RANTES (SEQ ID NO: 1) (ligand)
chain: B1 chain with L5G, M6S, T7Y, L8D, Q9Y, V10S
B26: RANTES derivative: signature sequence SEQ ID NO: 8 fused to positions 10-68 of native RANTES (SEQ ID NO: 1) (ligand)
chain: B1 chain with T7W, L8M, V10S
B27: RANTES derivative: signature sequence SEQ ID NO: 19 fused to positions 10-68 of native RANTES (SEQ ID NO: 1) (ligand)
chain: B1 chain with L5G, M6D, T7G, L8G, Q9S
B28: RANTES derivative: signature sequence SEQ ID NO: 22 fused to positions 10-68 of native RANTES (SEQ ID NO: 1) (ligand)
chain: B1 chain with T7S, L8F, V10S
B29: RANTES derivative: signature sequence SEQ ID NO: 7 fused to positions 10-68 of native RANTES (SEQ ID NO: 1) (ligand)
chain: B1 chain with T7W, L8T
B30: RANTES derivative: signature sequence SEQ ID NO: 67 fused to positions 10-68 of native RANTES (SEQ ID NO: 1) (ligand)
chain: B1 chain with T7S, L8A, V10S
B31: RANTES derivative: signature sequence SEQ ID NO: 14 fused to positions 10-68 of native RANTES (SEQ ID NO: 1) (ligand)
chain: B1 chain with P4L, T7W
B32: RANTES derivative: signature sequence SEQ ID NO: 61 fused to positions 10-68 of native RANTES (SEQ ID NO: 1) (ligand)
chain: B1 chain with M6Q, T7W, L8M
B33: RANTES derivative: signature sequence SEQ ID NO: 59 fused to positions 10-68 of native RANTES (SEQ ID NO: 1) (ligand)
chain: B1 chain with L5G, M6Q, T7W, L8Y, V10S

The molecules below were run against CCR5 (UniProt P51681) (assay: cell-based or functional assay).

Molecule | CCR5 sequestration (%) (% of control surface CCR5) | CCR5 signalling (%) (% of Emax of PSC-RANTES) | anti-HIV potency (IC50, nM) by cell fusion assay [nM] | anti-HIV potency (IC50, nM) by viral replication assay [nM]
B1 | 25 | 0.7 | 0.23 | –
B2 | 42 | 33.4 | 0.07 | –
B3 | 8 | 11.8 | 0.02 | –
B4 | 24 | 10.6 | 0.17 | –
B5 | 41 | 9.4 | 0.58 | –
B6 | 9 | 1.6 | 0.03 | –
B7 | 28 | 17.2 | 0.04 | –
B8 | 70 | 87.7 | 0.02 | 129
B9 | 30 | 11.5 | 0.04 | –
B10 | 45 | 29.6 | 0.03 | –
B11 | 50 | 42.7 | 0.03 | –
B12 | 9 | < 5 | 0.07 | –
B13 | 0 | 2.3 | 0.03 | 0.403
B14 | 35 | 5.3 | 0.03 | 0.625
B15 | 35 | 2.4 | 0.03 | 0.174
B16 | 36 | 22.6 | 0.39 | –
B17 | 2 | 2.4 | 0.65 | –

Molecule | CCR5 sequestration (%) (% of control surface CCR5) | CCR5 signalling (%) (% of Emax of PSC-RANTES) | anti-HIV potency (IC50, nM) by cell fusion assay [nM] | anti-HIV potency (IC50, nM) by viral replication assay [nM]
B18 | 59 | 45 | 0.03 | 0.213
B19 | 4 | 4.1 | 0.03 | 0.204
B20 | 38 | 20.1 | 0.22 | –
B21 | 3 | < 5 | 0.02 | –
B22 | 54 | 14.2 | 0.54 | –
B23 | 70 | 96.3 | 0.02 | 0.091
B24 | 71 | 95.6 | 0.66 | –
B25 | 69 | 90.1 | 0.08 | –
B26 | 0 | 2.5 | 0.03 | 0.278
B27 | 66 | 85.1 | 0.28 | –
B28 | 12 | 2.4 | 0.02 | 0.47
B29 | 10 | 0.7 | 0.02 | 0.179
B30 | 15 | 10.3 | 0.12 | –
B31 | 8 | 1.4 | 0.13 | –
B32 | 7 | 12.7 | 0.02 | –
B33 | 15 | 6 | 0.23 | –

Target: CCR5 (UniProt P51681)
Experiment: cell-based or functional assay
Remark: another data set of the same source

Molecule | CCR5 sequestration (%) (% of control surface CCR5) | CCR5 signalling (%) (% of Emax of PSC-RANTES) | anti-HIV potency (IC50, nM) by cell fusion assay [nM] | anti-HIV potency (IC50, nM) by viral replication assay [nM]
AOP-RANTES, the aminooxypentane oxime of [glyoxylyl]1RANTES(2-68) (from UniProt P13501 25-91) (ligand) | 71 | 80.7 | 1.12 | –
Met-RANTES (from UniProt P13501 24-91) (ligand) | 26 | 15 | 75.1 | –
PSC-RANTES (ligand) | 75 | 100 | 0.02 | 0.281
NNY-RANTES (n-nonanoyl-RANTES(2-68)) (from UniProt P13501 25-91) (ligand) | 77 | 84.5 | 0.29 | –

From patent US20090317363A1
